B1: progesterone receptor isoform B (PR-B), full-length, Strep II tagged (natural protein)
chain: MTELKAKGPRAPHVAGGPPSPEVGSPLLCRPAAGPFPGSQTSDTLPEVSAIPISLDGLLFPRPCQGQDPSDEKTQDQQSLSDVEGAYSRAEATRGAGGSSSSPPEKDSGLLDSVLDTLLAPSGPGQSQPSPPACEVTSSWCLFGPELPEDPPAAPATQRVLSPLMSRSGCKVGDSSGTAAAHKVLPRGLSPARQLLLPASESPHWSGAPVKPSPQAAAVEVEEEDGSESEESAGPLLKGKPRALGGAAAGGGAAAVPPGAAAGGVALVPKEDSRFSAPRVALVEQDAPMAPGRSPLATTVMDFIHVPILPLNHALLAARTRQLLEDESYDGGAGAASAFAPPRSSPCASSTPVAVGDFPDCAYPPDAEPKDDAYPLYSDFQPPALKIKEEEEGAEASARSPRSYLVAGANPAAFPDFPLGPPPPLPPRATPSRPGEAAVTAAPASASVSSASSSGSTLECILYKAEGAPPQQGPFAPPPCKAPGASGCLLPRDGLPSTSASAAAAGAAPALYPALGLNGLPQLGYQAAVLKEGLPQVYPPYLNYLRPDSEASQSPQYSFESLPQKICLICGDEASGCHYGVLTCGSCKVFFKRAMEGQHNYLCAGRNDCIVDKIRRKNCPACRLRKCCQAGMVLGGRKFKKFNKVRVVRALDAVALPQPVGVPNESQALSQRFTFSPGQDIQLIPPLINLLMSIEPDVIYAGHDNTKPDTSSSLLTSLNQLGERQLLSVVKWSKSLPGFRNLHIDDQITLIQYSWMSLMVFGLGWRSYKHVSGQMLYFAPDLILNEQRMKESSFYSLCLTMWQIPQEFVKLQVSQEEFLCMKVLLLLNTIPLEGLRSQTQFEEMRSSYIRELIKAIGLRQKGVVSSSQRFYQLTKLLDNLHDLVKQLHLYCLNTFIQSRALSVEFPEMMSEVIAAQLPKILAGMVKPLLFHKK
B2: steroid receptor coactivator 3 (SRC3), full-length, Strep II tagged (natural protein)
chain: not shown
B3: progesterone receptor isoform A (PR-A), full-length, Strep II tagged (natural protein)
chain: MSRSGCKVGDSSGTAAAHKVLPRGLSPARQLLLPASESPHWSGAPVKPSPQAAAVEVEEEDGSESEESAGPLLKGKPRALGGAAAGGGAAAVPPGAAAGGVALVPKEDSRFSAPRVALVEQDAPMAPGRSPLATTVMDFIHVPILPLNHALLAARTRQLLEDESYDGGAGAASAFAPPRSSPCASSTPVAVGDFPDCAYPPDAEPKDDAYPLYSDFQPPALKIKEEEEGAEASARSPRSYLVAGANPAAFPDFPLGPPPPLPPRATPSRPGEAAVTAAPASASVSSASSSGSTLECILYKAEGAPPQQGPFAPPPCKAPGASGCLLPRDGLPSTSASAAAAGAAPALYPALGLNGLPQLGYQAAVLKEGLPQVYPPYLNYLRPDSEASQSPQYSFESLPQKICLICGDEASGCHYGVLTCGSCKVFFKRAMEGQHNYLCAGRNDCIVDKIRRKNCPACRLRKCCQAGMVLGGRKFKKFNKVRVVRALDAVALPQPVGVPNESQALSQRFTFSPGQDIQLIPPLINLLMSIEPDVIYAGHDNTKPDTSSSLLTSLNQLGERQLLSVVKWSKSLPGFRNLHIDDQITLIQYSWMSLMVFGLGWRSYKHVSGQMLYFAPDLILNEQRMKESSFYSLCLTMWQIPQEFVKLQVSQEEFLCMKVLLLLNTIPLEGLRSQTQFEEMRSSYIRELIKAIGLRQKGVVSSSQRFYQLTKLLDNLHDLVKQLHLYCLNTFIQSRALSVEFPEMMSEVIAAQLPKILAGMVKPLLFHKK

The target in experiment [1] is B2. Nature of the experiment: HDX-MS.
Experiment [2] deals with T1, histone acetyltransferase p300, full-length, Strep II tagged (human, UniProt Q09472 1-2414). Description: cross-linking.
T1 sequence (Q09472 whole entry): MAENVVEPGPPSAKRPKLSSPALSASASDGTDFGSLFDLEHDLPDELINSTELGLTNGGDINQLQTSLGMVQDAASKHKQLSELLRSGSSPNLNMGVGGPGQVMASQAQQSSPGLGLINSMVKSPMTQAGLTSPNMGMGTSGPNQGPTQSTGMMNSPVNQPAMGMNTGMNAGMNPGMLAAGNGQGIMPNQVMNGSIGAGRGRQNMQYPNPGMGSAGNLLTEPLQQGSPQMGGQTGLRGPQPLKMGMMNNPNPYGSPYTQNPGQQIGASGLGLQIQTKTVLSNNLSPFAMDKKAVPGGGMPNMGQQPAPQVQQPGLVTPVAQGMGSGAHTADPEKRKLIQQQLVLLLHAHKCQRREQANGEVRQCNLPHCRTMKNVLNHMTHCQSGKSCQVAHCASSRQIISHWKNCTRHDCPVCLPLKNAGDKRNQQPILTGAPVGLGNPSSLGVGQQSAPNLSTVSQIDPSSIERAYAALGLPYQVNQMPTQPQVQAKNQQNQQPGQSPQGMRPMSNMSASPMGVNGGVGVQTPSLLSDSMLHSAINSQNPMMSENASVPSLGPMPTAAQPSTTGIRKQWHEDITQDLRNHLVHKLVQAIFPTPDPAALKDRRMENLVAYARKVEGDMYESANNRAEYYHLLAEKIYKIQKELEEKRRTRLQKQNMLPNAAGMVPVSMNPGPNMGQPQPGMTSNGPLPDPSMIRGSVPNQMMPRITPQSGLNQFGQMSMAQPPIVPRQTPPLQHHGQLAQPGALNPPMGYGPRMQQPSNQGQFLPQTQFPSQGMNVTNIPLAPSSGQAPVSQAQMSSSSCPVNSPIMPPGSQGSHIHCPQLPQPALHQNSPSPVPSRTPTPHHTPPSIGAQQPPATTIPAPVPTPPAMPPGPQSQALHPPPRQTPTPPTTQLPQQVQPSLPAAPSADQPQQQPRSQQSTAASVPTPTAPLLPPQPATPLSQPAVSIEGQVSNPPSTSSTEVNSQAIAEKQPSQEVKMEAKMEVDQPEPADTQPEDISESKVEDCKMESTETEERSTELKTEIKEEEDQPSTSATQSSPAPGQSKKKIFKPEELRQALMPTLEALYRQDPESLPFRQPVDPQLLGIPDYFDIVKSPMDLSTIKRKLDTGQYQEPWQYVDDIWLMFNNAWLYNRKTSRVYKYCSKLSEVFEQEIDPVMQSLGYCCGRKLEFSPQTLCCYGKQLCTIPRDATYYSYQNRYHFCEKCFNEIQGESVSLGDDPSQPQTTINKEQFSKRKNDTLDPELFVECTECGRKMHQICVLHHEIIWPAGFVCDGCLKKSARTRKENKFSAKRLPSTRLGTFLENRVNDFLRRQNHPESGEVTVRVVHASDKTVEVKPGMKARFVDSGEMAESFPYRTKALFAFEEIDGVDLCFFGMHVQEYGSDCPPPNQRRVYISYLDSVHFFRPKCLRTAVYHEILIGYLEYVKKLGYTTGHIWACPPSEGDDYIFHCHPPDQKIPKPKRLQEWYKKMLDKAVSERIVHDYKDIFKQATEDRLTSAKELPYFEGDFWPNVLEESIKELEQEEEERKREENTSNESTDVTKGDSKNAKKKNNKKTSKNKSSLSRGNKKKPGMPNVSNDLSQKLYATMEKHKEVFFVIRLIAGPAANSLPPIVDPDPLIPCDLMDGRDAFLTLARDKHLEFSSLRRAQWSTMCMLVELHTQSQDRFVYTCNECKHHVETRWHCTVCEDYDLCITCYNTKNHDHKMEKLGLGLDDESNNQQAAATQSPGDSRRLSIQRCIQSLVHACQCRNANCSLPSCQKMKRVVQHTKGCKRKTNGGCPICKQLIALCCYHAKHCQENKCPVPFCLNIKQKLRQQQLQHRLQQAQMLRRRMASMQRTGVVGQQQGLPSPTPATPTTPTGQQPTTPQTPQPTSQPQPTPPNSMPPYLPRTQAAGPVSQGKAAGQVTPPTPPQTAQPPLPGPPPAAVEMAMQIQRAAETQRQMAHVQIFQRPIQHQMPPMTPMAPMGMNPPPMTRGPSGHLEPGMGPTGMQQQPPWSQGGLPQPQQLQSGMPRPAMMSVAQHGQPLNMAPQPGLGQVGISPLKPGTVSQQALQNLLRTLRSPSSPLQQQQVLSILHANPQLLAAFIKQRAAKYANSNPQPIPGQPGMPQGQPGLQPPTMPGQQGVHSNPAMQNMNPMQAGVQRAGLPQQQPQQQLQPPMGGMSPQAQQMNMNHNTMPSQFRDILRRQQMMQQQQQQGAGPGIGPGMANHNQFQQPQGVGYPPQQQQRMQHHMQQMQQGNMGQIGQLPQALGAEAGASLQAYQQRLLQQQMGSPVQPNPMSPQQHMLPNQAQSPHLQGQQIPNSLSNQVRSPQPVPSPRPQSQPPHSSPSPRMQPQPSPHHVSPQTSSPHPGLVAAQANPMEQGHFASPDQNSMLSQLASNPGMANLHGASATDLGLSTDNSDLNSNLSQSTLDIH
The target in experiment [3] is T1, histone acetyltransferase p300, …. Nature of the experiment: HDX-MS.
For experiment [4], the target named is B3. Description: SEC-MALS. For orientation: In gel filtration, larger molecules generally elute earlier.

Regarding B1, the binding result in experiment [1] and in experiment [2] was “binds” each time.
With B2, the binding result in experiment [3] is on record as “binds”. Further, the stoichiometry N (in general, a count of units in the complex or per binding partner) in experiment [4] turned out to be 0.5 SRC3 per PR-A.
Turning to B3, the binding result in experiment [1] and in experiment [2] was “binds” throughout.
